Laboratory results: ChEMBL document CHEMBL2074420, “Taxol transport by human intestinal epithelial Caco-2 cells” (Drug Metab Dispos, 1998)

Test system: CC(=O)O[C@H]1C(=O)[C@@]2(C)[C@H]([C@H](OC(=O)c3ccccc3)[C@]3(O)C[C@H](OC(=O)[C@H](O)[C@@H](NC(=O)c4ccccc4)c4ccccc4)C(C)=C1C3(C)C)[C@]1(OC(C)=O)CO[C@@H]1C[C@@H]2O
Test: TP_TRANSPORTER: transepithelial transport (basal to apical) in Caco-2 cells
Format: functional, cell-based

“ATP-dependent translocase ABCB1 (Homo sapiens)” was tested. Which Km did it give?
Its Km is 16.5 µM.
